US10485854B2, “Method of reducing biofilms” (Lysando AG, priority 2010, dated 2019)
Changes are numbered by the printed parent chain.

B1: (POLY)^2-gp144: fusion protein SEQ ID NO: 36: endolysin SEQ ID NO: 1 with peptide SEQ ID NO: 21 (protein)
chain: MGSKRKKRKKRKRSKRKKRKKRKKVLRKGDRGDEVCQLQTLLNLCGYDVGKPDGIFGNNTFNQVVKFQKDNCLDSDGIVGKNTWAELFSKYSPPIPYKTIPMPTANKSRAAATPVMNAVENATGVRSQLLLTFASIESAFDYEIKAKTSSATGWFQFLTGTWKTMIENYGMKYGVLTDPTGALRKDPRISALMGAELIKENMNILRPVLKREPTDTDLYLAHFFGPGAARRFLTTGQNELAATHFPKEAQANPSIFYNKDGSPKTIQEVYNLMDGKVAAHRK
modifications: (POLY)2-gp144
B2: POLY-gp144: fusion protein SEQ ID NO: 35: endolysin phiKZgp144 (SEQ ID NO: 1) with N-terminal peptide KRKKRKKRK (SEQ ID NO: 11) (protein)
chain: MGSKRKKRKKRKKVLRKGDRGDEVCQLQTLLNLCGYDVGKPDGIFGNNTFNQVVKFQKDNCLDSDGIVGKNTWAELFSKYSPPIPYKTIPMPTANKSRAAATPVMNAVENATGVRSQLLLTFASIESAFDYEIKAKTSSATGWFQFLTGTWKTMIENYGMKYGVLTDPTGALRKDPRISALMGAELIKENMNILRPVLKREPTDTDLYLAHFFGPGAARRFLTTGQNELAATHFPKEAQANPSIFYNKDGSPKTIQEVYNLMDGKVAAHRK
modifications: POLY-gp144
B3: K8_pET32b: fusion protein SEQ ID NO: 48: endolysin SEQ ID NO: 1 with peptide KKKKKKKK (SEQ ID NO: 13) (protein)
chain: B2 chain with M1A, G2M, S3G, K4S, R5K, R8K, R11K
modifications: K8_pET32b
B4: pK2KZ144_pET32b_mod3: fusion protein SEQ ID NO: 49: endolysin SEQ ID NO: 1 with 38-residue linker-containing peptide SEQ ID NO: 28 (protein)
chain: AMGSKRKKRKKRKRGSGSGKRKKRKKRKRGSGSGKRKKRKKRKKVLRKGDRGDEVCQLQTLLNLCGYDVGKPDGIFGNNTFNQVVKFQKDNCLDSDGIVGKNTWAELFSKYSPPIPYKTIPMPTANKSRAAATPVMNAVENATGVRSQLLLTFASIESAFDYEIKAKTSSATGWFQFLTGTWKTMIENYGMKYGVLTDPTGALRKDPRISALMGAELIKENMNILRPVLKREPTDTDLYLAHFFGPGAARRFLTTGQNELAATHFPKEAQANPSIFYNKDGSPKTIQEVYNLMDGKVAAHRK
modifications: pK2KZ144_pET32b_mod3
B5: PSP3gp10: unmodified globular endolysin of Salmonella typhimurium phage PSP3, SEQ ID NO: 8 (protein)
chain: MPVINTHQNIAAFLDMLAYSEGTANHPLTKNRGYDVIVTGFDGSPEIFTDYSDHPFAHGRPPKVFNRRGEKSTASGRYQQLYIFWPHYKKQLALPDFSPLSQDKLAIQLIRERGAIDDIRAGRIERAVSRCRNIWASLPGAGYGQREHSLEKLVTVWRTAGGVMA
modifications: PSP3gp10
B6: PKPSP3gp10: fusion protein SEQ ID NO: 53: endolysin PSP3gp10 (SEQ ID NO: 8) with peptide SEQ ID NO: 11 (protein)
chain: MGSKRKKRKKRKPVINTHQNIAAFLDMLAYSEGTANHPLTKNRGYDVIVTGFDGSPEIFTDYSDHPFAHGRPPKVFNRRGEKSTASGRYQQLYIFWPHYKKQLALPDFSPLSQDKLAIQLIRERGAIDDIRAGRIERAVSRCRNIWASLPGAGYGQREHSLEKLVTVWRTAGGVMA
modifications: PKPSP3gp10
B7: POLY-gp188: fusion protein SEQ ID NO: 39: endolysin ELgp188 (SEQ ID NO: 2) with peptide SEQ ID NO: 11 (protein)
chain: MGSKRKKRKKRKNFRTKNGYRDLQALVKELGLYTGQIDGVWGKGTSSSTETLLRGYAEVVGKNTGGIGLPTTSDASGYNVITALQRNLAFLGLYSLTVDGIWGNGTLSGLDKAFEVYKERYRTPTYDIAWSGKVSPAFTAKVKDWCGVHVPNHRAPHWLMACMAFETGQTFSPSIKNAAGSEAYGLIQFMSPAANDLNVPLSVIRSMDQLTQLDLVFKYFEMWMKRGKRYTQLEDFYLTIFHPASVGKKADEVLFLQGSKAYLQNKGFDVDKDGKITLGEISSTLYTTYYKGLLPENRHVISY
modifications: POLY-gp188
B8: ELgp188: unmodified modular endolysin of Pseudomonas aeruginosa phage EL, SEQ ID NO: 2 (protein)
chain: MNFRTKNGYRDLQALVKELGLYTGQIDGVWGKGTSSSTETLLRGYAEVVGKNTGGIGLPTTSDASGYNVITALQRNLAFLGLYSLTVDGIWGNGTLSGLDKAFEVYKERYRTPTYDIAWSGKVSPAFTAKVKDWCGVHVPNHRAPHWLMACMAFETGQTFSPSIKNAAGSEAYGLIQFMSPAANDLNVPLSVIRSMDQLTQLDLVFKYFEMWMKRGKRYTQLEDFYLTIFHPASVGKKADEVLFLQGSKAYLQNKGFDVDKDGKITLGEISSTLYTTYYKGLLPENRHVISY
modifications: ELgp188
B9: R9_pET32b: fusion protein SEQ ID NO: 47: endolysin SEQ ID NO: 1 with peptide RRRRRRRRR (SEQ ID NO: 12) (protein)
chain: AMGSRRRRRRRRRKVLRKGDRGDEVCQLQTLLNLCGYDVGKPDGIFGNNTFNQVVKFQKDNCLDSDGIVGKNTWAELFSKYSPPIPYKTIPMPTANKSRAAATPVMNAVENATGVRSQLLLTFASIESAFDYEIKAKTSSATGWFQFLTGTWKTMIENYGMKYGVLTDPTGALRKDPRISALMGAELIKENMNILRPVLKREPTDTDLYLAHFFGPGAARRFLTTGQNELAATHFPKEAQANPSIFYNKDGSPKTIQEVYNLMDGKVAAHRK
modifications: R9_pET32b
B10: (POLY)^2-gp188: fusion protein SEQ ID NO: 40: endolysin SEQ ID NO: 2 with peptide SEQ ID NO: 21 (protein)
chain: MGSKRKKRKKRKRSKRKKRKKRKNFRTKNGYRDLQALVKELGLYTGQIDGVWGKGTSSSTETLLRGYAEVVGKNTGGIGLPTTSDASGYNVITALQRNLAFLGLYSLTVDGIWGNGTLSGLDKAFEVYKERYRTPTYDIAWSGKVSPAFTAKVKDWCGVHVPNHRAPHWLMACMAFETGQTFSPSIKNAAGSEAYGLIQFMSPAANDLNVPLSVIRSMDQLTQLDLVFKYFEMWMKRGKRYTQLEDFYLTIFHPASVGKKADEVLFLQGSKAYLQNKGFDVDKDGKITLGEISSTLYTTYYKGLLPENRHVISY
modifications: (POLY)2-gp188
B11: PK-Lysostaphin: fusion protein SEQ ID NO: 142: bacteriocin Lysostaphin (SEQ ID NO: 87) with peptide SEQ ID NO: 11 (protein)
chain: AMGKRKKRKKRKGSAHEHSAQWLNNYKKGYGYGPYPLGINGGMHYGVDFFMNIGTPVKAISSGKIVEAGWSNYGGGNQIGLIENDGVHRQWYMHLSKYNVKVGDYVKAGQIIGWSGSTGYSTAPHLHFQRMVNSFSNSTAQDPMPFLKSAGYGKAGGTVTPTPNTGWKTNKYGTLYKSESASFTPNTDIITRTTGPFRSMPQSGVLKAGQTIHYDEVMKQDGHVWVGYTGNSGQRIYLPVRTWNKSTNTLGVLWGTIKLVPRGS
modifications: PK-Lysostaphin
B12: KRK_6_pET32b: fusion protein SEQ ID NO: 44: endolysin SEQ ID NO: 1 with peptide KRKKRK (SEQ ID NO: 10) (protein)
chain: AMGSKRKKRKKVLRKGDRGDEVCQLQTLLNLCGYDVGKPDGIFGNNTFNQVVKFQKDNCLDSDGIVGKNTWAELFSKYSPPIPYKTIPMPTANKSRAAATPVMNAVENATGVRSQLLLTFASIESAFDYEIKAKTSSATGWFQFLTGTWKTMIENYGMKYGVLTDPTGALRKDPRISALMGAELIKENMNILRPVLKREPTDTDLYLAHFFGPGAARRFLTTGQNELAATHFPKEAQANPSIFYNKDGSPKTIQEVYNLMDGKVAAHRK
modifications: KRK_6_pET32b

How the values were obtained:
[1] = test system: P. aeruginosa PAO1p cells; experiment: Antibacterial activity, 1 hour incubation with 100 μg/ml protein, residual colony count; details: for antibacterial effect in words (reduction of cell numbers compared to the negative control): 100 μg/ml protein, room temperature; for antibacterial activity as the relative inactivation (%): exponentially growing cells, room temperature (Table 6); for antibacterial activity as the relative inactivation (%) / Reduction [%]: undialyzed protein 100 μg/ml; for Reduction [%]: room temperature (Table 7)
[2] = test system: P. aeruginosa PAO1p; assay type: cell-based, Pseudomonas aeruginosa; details: 1.315 μM endolysin + 0.5 mM EDTA
[3] = test system: biofilm of the Staphylococcus aureus strain KS13; experiment: Biofilm reduction, crystal violet assay; details: 18 μg/well, 12 h; compared to the enzyme Lysostaphin

| Molecule | antibacterial effect in words (reduction of cell numbers compared to the negative control) [1] | antibacterial activity as the relative inactivation (%) [1] | Reduction [%] [1] | also measured |
| --- | --- | --- | --- | --- |
| B1 | significant reduction | 99.98±0.02% |  |  |
| B2 | significant reduction | 99.85±0.09% |  |  |
| B3 |  |  | 99% |  |
| B4 |  |  | 99.9% |  |
| B5 |  |  |  | interaction of EDTA with the endolysin [2]: synergistically |
| B6 |  |  |  | interaction of EDTA with the endolysin [2]: synergistically |
| B7 | significant reduction | 98.0±0.2% |  |  |
| B8 | do not reduce cell numbers significantly | 10 ± 13% |  |  |
| B9 |  |  | 99% |  |
| B10 | significant reduction | 98.9 ± 0.4% |  |  |
| B11 |  |  |  | reduction of biofilm (crystal violet, absorption 590 nm) [3]: massive reduction |
| B12 |  |  | 99.9% |  |
